Experimental data from patent publication US20260042806A1 (OXFORD NANOPORE TECHNOLOGIES, published 2026).
Positions count from the first letter of the chain named. Names may count otherwise. No end group written: not given here. *: point of attachment. 4‑(fluorosulfonyl)phenylacetyl = O=C(Cc1ccc(S(=O)(=O)F)cc1)*; Benzoyl(3-SO2F) = O=C(c1cccc(S(=O)(=O)F)c1)*; Benzoyl(4-SO2F) = O=C(c1ccc(S(=O)(=O)F)cc1)*

Experiments:
[1] = target: T1, CsgG (preformed nonameric CsgG pore complexes of Example 2) (Escherichia coli, UniProt P0AEA2 16-277); test: insertion of complexes into bilayers; told of the covalent SuTide complexes as a group
T1 construct: Tyr196 fits that numbering; also called CsgG nonameric channel
T1 sequence: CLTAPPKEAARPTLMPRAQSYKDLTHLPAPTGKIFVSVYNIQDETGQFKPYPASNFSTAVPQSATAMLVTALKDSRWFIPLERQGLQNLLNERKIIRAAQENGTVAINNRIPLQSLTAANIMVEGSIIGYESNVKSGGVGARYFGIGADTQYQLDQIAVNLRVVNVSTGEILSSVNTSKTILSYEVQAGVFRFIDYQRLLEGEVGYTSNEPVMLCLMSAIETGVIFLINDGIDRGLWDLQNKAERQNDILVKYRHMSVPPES

[2] = target: T1, CsgG (preformed nonameric CsgG pore …); test: SDS-PAGE time course of the reaction with CsgG
[3] = target: T2, CsgG-F56Q pore (ONLP20134) (Escherichia coli, UniProt P0AEA2 16-277); test: single-channel current traces, MinION flow cell, -180 mV
T2 construct: Oligomeric pore purified from E. coli; also called CsgG-WT-F56Q; CsgG-only pore control
T2 sequence: T1 sequence with F56Q

B1: CsgF-K30-META-SO2F-del(S31-F119) (peptide)
peptide: GTMTFQFRNPNFGGNPNNGAFLLNSAQAQK(Benzoyl(3-SO2F))-NH2
modifications: N-terminus assumed
SMILES: CSCC[C@H](NC(=O)[C@@H](NC(=O)CN)[C@@H](C)O)C(=O)N[C@H](C(=O)N[C@@H](Cc1ccccc1)C(=O)N[C@@H](CCC(N)=O)C(=O)N[C@@H](Cc1ccccc1)C(=O)N[C@@H](CCCNC(=N)N)C(=O)N[C@@H](CC(N)=O)C(=O)N1CCC[C@H]1C(=O)N[C@@H](CC(N)=O)C(=O)N[C@@H](Cc1ccccc1)C(=O)NCC(=O)NCC(=O)N[C@@H](CC(N)=O)C(=O)N1CCC[C@H]1C(=O)N[C@@H](CC(N)=O)C(=O)N[C@@H](CC(N)=O)C(=O)NCC(=O)N[C@@H](C)C(=O)N[C@@H](Cc1ccccc1)C(=O)N[C@@H](CC(C)C)C(=O)N[C@@H](CC(C)C)C(=O)N[C@@H](CC(N)=O)C(=O)N[C@@H](CO)C(=O)N[C@@H](C)C(=O)N[C@@H](CCC(N)=O)C(=O)N[C@@H](C)C(=O)N[C@@H](CCC(N)=O)C(=O)N[C@@H](CCCCNC(=O)c1cccc(S(=O)(=O)F)c1)C(N)=O)[C@@H](C)O
notes: Synthetic peptide: WT CsgF(1-29) with a modified Lys at position 30; also called 3-SO2F-CsgF; CsgF-WT-K30-META-SO2F-del(S31-F119)
What does the source list for B1?
fold increase in the proportion of bilayer embedded stable complexes over the non-covalent complex [1]: 2 fold; first order rate constant k1 of covalent reaction [2]: ~1 h⁻¹; halftime (t1/2) of covalent complex formation [2]: 0.66 h

B2: CsgF-del(S31-F119) (peptide)
peptide: GTMTFQFRNPNFGGNPNNGAFLLNSAQAQN
notes: Chemically synthesised peptide; In complex ONLP20783 with CsgG-F56Q; also called CsgF-WT-del(S31-F119); del(S31-F119) CsgF peptide
Does B2 bind [3]?
Result: binds

B3: CsgF-K30-PARA-SO2F-del(S31-F119) (peptide)
peptide: GTMTFQFRNPNFGGNPNNGAFLLNSAQAQK(Benzoyl(4-SO2F))-NH2
modifications: N-terminus assumed
SMILES: CSCC[C@H](NC(=O)[C@@H](NC(=O)CN)[C@@H](C)O)C(=O)N[C@H](C(=O)N[C@@H](Cc1ccccc1)C(=O)N[C@@H](CCC(N)=O)C(=O)N[C@@H](Cc1ccccc1)C(=O)N[C@@H](CCCNC(=N)N)C(=O)N[C@@H](CC(N)=O)C(=O)N1CCC[C@H]1C(=O)N[C@@H](CC(N)=O)C(=O)N[C@@H](Cc1ccccc1)C(=O)NCC(=O)NCC(=O)N[C@@H](CC(N)=O)C(=O)N1CCC[C@H]1C(=O)N[C@@H](CC(N)=O)C(=O)N[C@@H](CC(N)=O)C(=O)NCC(=O)N[C@@H](C)C(=O)N[C@@H](Cc1ccccc1)C(=O)N[C@@H](CC(C)C)C(=O)N[C@@H](CC(C)C)C(=O)N[C@@H](CC(N)=O)C(=O)N[C@@H](CO)C(=O)N[C@@H](C)C(=O)N[C@@H](CCC(N)=O)C(=O)N[C@@H](C)C(=O)N[C@@H](CCC(N)=O)C(=O)N[C@@H](CCCCNC(=O)c1ccc(S(=O)(=O)F)cc1)C(N)=O)[C@@H](C)O
notes: Synthetic peptide: WT CsgF(1-29) with a modified Lys at position 30; also called 4-SO2F-CsgF; CsgF-WT-K30-PARA-SO2F-del(S31-F119)
How did the “fold increase in the proportion of bilayer embedded stable complexes over the non-covalent complex” value [1] turn out when B3 was run?
Its value is 2 fold.

And the “first order rate constant k1 of covalent reaction” value [2]?
Its value is roughly 0.46 h⁻¹.

What about the “halftime (t1/2) of covalent complex formation” value [2] of the same binder?
Its value is 1.5 h.

B4: CsgF-K30-CH2-PH-P-SO2F-del(S31-F119) (peptide)
peptide: GTMTFQFRNPNFGGNPNNGAFLLNSAQAQK(4‑(fluorosulfonyl)phenylacetyl)-NH2
modifications: N-terminus assumed
SMILES: CSCC[C@H](NC(=O)[C@@H](NC(=O)CN)[C@@H](C)O)C(=O)N[C@H](C(=O)N[C@@H](Cc1ccccc1)C(=O)N[C@@H](CCC(N)=O)C(=O)N[C@@H](Cc1ccccc1)C(=O)N[C@@H](CCCNC(=N)N)C(=O)N[C@@H](CC(N)=O)C(=O)N1CCC[C@H]1C(=O)N[C@@H](CC(N)=O)C(=O)N[C@@H](Cc1ccccc1)C(=O)NCC(=O)NCC(=O)N[C@@H](CC(N)=O)C(=O)N1CCC[C@H]1C(=O)N[C@@H](CC(N)=O)C(=O)N[C@@H](CC(N)=O)C(=O)NCC(=O)N[C@@H](C)C(=O)N[C@@H](Cc1ccccc1)C(=O)N[C@@H](CC(C)C)C(=O)N[C@@H](CC(C)C)C(=O)N[C@@H](CC(N)=O)C(=O)N[C@@H](CO)C(=O)N[C@@H](C)C(=O)N[C@@H](CCC(N)=O)C(=O)N[C@@H](C)C(=O)N[C@@H](CCC(N)=O)C(=O)N[C@@H](CCCCNC(=O)Cc1ccc(S(=O)(=O)F)cc1)C(N)=O)[C@@H](C)O
notes: Synthetic peptide: WT CsgF(1-29) with a modified Lys at position 30; also called 4-CH2SO2F-CsgF; CsgF-WT-K30-CH2PH-p-SO2F-del(S31-F119)
With B4 as the binder, how does the “fold increase in the proportion of bilayer embedded stable complexes over the non-covalent complex” value [1] read?
Its value is 2 fold.

What about the “first order rate constant k1 of covalent reaction” value [2] of the same binder?
Its value is roughly 0.17 h⁻¹.

What about the “halftime (t1/2) of covalent complex formation” value [2] of the same binder?
The value was 4 h.
